Experimental data published in article PMC9237740, “SNARE SYP132 mediates divergent traffic of plasma membrane H^+-ATPase AHA1 and antimicrobial PR1 during bacterial pathogenesis” (Plant Physiology, 2022).

Target: T1, GFP-fused SYP132 (SYNTAXIN OF PLANTS132) expressed under its native promoter (Arabidopsis thaliana, UniProt Q8VZU2 1-304)
T1 construct: SYNTAXIN OF PLANTS132 (SYP132), Arabidopsis thaliana, At5g08080; also called GFP-SYP132; SYP132p:GFP-SYP132; source: Arabidopsis SYP132p:GFP-SYP132 transgenic line, in leaf lysate
T1 sequence (looked up): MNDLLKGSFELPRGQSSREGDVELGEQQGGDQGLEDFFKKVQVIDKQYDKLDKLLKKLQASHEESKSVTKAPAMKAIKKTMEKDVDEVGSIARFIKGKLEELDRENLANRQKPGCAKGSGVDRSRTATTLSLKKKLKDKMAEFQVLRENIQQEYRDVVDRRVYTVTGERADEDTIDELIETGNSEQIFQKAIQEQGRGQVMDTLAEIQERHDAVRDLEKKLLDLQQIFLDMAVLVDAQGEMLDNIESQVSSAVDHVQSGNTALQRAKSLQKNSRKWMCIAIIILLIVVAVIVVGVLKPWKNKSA
Test: co-IP; GFP-Trap agarose beads saturated with GFP-tagged bait from Arabidopsis leaf lysates; plants treated 24 h without or with Pst DC3000 in 10 mM MgCl2; binding buffer PBS pH 7.45, 0.01% Triton X-100, 0.05 mM DTT, 0.01% CHAPS, 1 h at 4°C; washes with additional 150 mM NaCl; bound proteins detected by immunoblot
Settings: partners not purified

B1: PM H+-ATPase 1 (AHA1), native (natural protein, UniProt P20649 1-949, looked up)
chain: MSGLEDIKNETVDLEKIPIEEVFQQLKCTREGLTTQEGEDRIVIFGPNKLEEKKESKILKFLGFMWNPLSWVMEAAALMAIALANGDNRPPDWQDFVGIICLLVINSTISFIEENNAGNAAAALMAGLAPKTKVLRDGKWSEQEAAILVPGDIVSIKLGDIIPADARLLEGDPLKVDQSALTGESLPVTKHPGQEVFSGSTCKQGEIEAVVIATGVHTFFGKAAHLVDSTNQVGHFQKVLTSIGNFCICSIAIGIAIEIVVMYPIQHRKYRDGIDNLLVLLIGGIPIAMPTVLSVTMAIGSHRLSQQGAITKRMTAIEEMAGMDVLCSDKTGTLTLNKLSVDKNLVEVFCKGVEKDQVLLFAAMASRVENQDAIDAAMVGMLADPKEARAGIREVHFLPFNPVDKRTALTYIDSDGNWHRVSKGAPEQILDLANARPDLRKKVLSCIDKYAERGLRSLAVARQVVPEKTKESPGGPWEFVGLLPLFDPPRHDSAETIRRALNLGVNVKMITGDQLAIGKETGRRLGMGTNMYPSAALLGTDKDSNIASIPVEELIEKADGFAGVFPEHKYEIVKKLQERKHIVGMTGDGVNDAPALKKADIGIAVADATDAARGASDIVLTEPGLSVIISAVLTSRAIFQRMKNYTIYAVSITIRIVFGFMLIALIWEFDFSAFMVLIIAILNDGTIMTISKDRVKPSPTPDSWKLKEIFATGIVLGGYQAIMSVIFFWAAHKTDFFSDKFGVRSIRDNNDELMGAVYLQVSIISQALIFVTRSRSWSFVERPGALLMIAFVIAQLVATLIAVYADWTFAKVKGIGWGWAGVIWIYSIVTYFPQDILKFAIRYILSGKAWASLFDNRTAFTTKKDYGIGEREAQWAQAQRTLHGLQPKEDVNIFPEKGSYRELSEIAEQAKRRAEIARLRELHTLKGHVESVAKLKGLDIDTAGHHYTV
notes: Plasma membrane H+-ATPase 1 (AHA1), Arabidopsis thaliana, At2g18960; detected with anti-AHA1 antibodies at ~100 kDa; also called AHA1 isoform; plasma membrane H+-ATPase AHA1; source: endogenous, Arabidopsis leaf lysate
- fold change of Co-IP bound/bait after Pst DC3000 infection relative to buffer control: ~2.5 fold
